Blank lines part the entries; values can stand above or below the molecule they belong to.
Columns and labels:
[1] = target: microtubules of porcine brain tubulin (pig (endogenous in brain)) (UniProt P02550)
[2] = target: GFP-tagged human cytoplasmic dynein complex (human) (UniProt Q14204); experiment: TIRF microscopy of purified proteins on static GMPCPP microtubules (single-particle colocalisation); 5 nM GFP-dynein, 10 nM pig dynactin, 200 nM BicD2-N, 50 nM mCherry-Lis1; immobilised GMPCPP microtubules; HEPES-based buffer (60 mM HEPES pH 7.4, 50 mM K-acetate, 2 mM MgCl2, 10% glycerol, 2 mM ATP)
[3] = target: GFP-tagged human cytoplasmic dynein complex (human) (UniProt Q14204); experiment: TIRF microscopy of purified proteins on static GMPCPP microtubules (single-particle colocalisation); 5 nM GFP-dynein, 10 nM pig dynactin, 200 nM BicD2-N, 50 nM mCherry-Lis1; immobilised GMPCPP microtubules; assay buffer AB

initiation probability of processive DDB runs within the first 360 nm from the growing microtubule plus end, without EB1 (average 0.05 per 360 nm segment anywhere on the microtubule) [1]: 0.33
Molecule: native dynactin complex from pig brain (from UniProt A0A287B8J2 1-1281; A0A5G2QD80 1-405; F2Z5G5 1-349)

percent of processive DDB particles with Lis1 bound [2]: 16%
percent of processive DDB particles with Lis1 bound [3]: 9%
B1: mCherry-Lis1 (human Lissencephaly-1) (natural protein)
chain: MVLSQRQRDELNRAIADYLRSNGYEEAYSVFKKEAELDVNEELDKKYAGLLEKKWTSVIRLQKKVMELESKLNEAKEEFTSGGPLGQKRDPKEWIPRPPEKYALSGHRSPVTRVIFHPVFSVMVSASEDATIKVWDYETGDFERTLKGHTDSVQDISFDHSGKLLASCSADMTIKLWDFQGFECIRTMHGHDHNVSSVAIMPNGDHIVSASRDKTIKMWEVQTGYCVKTFTGHREWVRMVRPNQDGTLIASCSNDQTVRVWVVATKECKAELREHEHVVECISWAPESSYSSISEATGSETKKSGKPGPFLLSGSRDKTIKMWDVSTGMCLMTLVGHDNWVRGVLFHSGGKFILSCADDKTLRVWDYKNKRCMKTLNAHEHFVTSLDFHKTAPYVVTGSVDQTVKVWECR

From PMC5686545
